Measured values taken from article PMC7567794 (Scientific Reports, 2020).

target: T1, tissue factor (S33 to E251) (Homo sapiens, UniProt P13726); experiment: SPR; Biacore 8K; TF immobilised on a CM5 chip by amine coupling (450-750 response units); Fab as analyte; single-cycle kinetics, association 120 s, dissociation 1800 s, no regeneration; PBS with 0.005% Tween-20; three measurements; settings: both partners purified
T1 construct: tissue factor (TF), residues S33 to E251; the antigen of the antibody D3h44 in PDB 1JPS; The tag was removed with Ulp1; tag-free TF was used; Antigen residues named in the text (S202, K169, P194, I152) follow the numbering of PDB 1JPS, not that of the construct limits; also called TF; antigen; source: E. coli BL21 (DE3), purified (Ni-NTA, SEC); not shown: His6, N-terminal, cleaved; SUMO, …
T1 sequence (P13726 33-251): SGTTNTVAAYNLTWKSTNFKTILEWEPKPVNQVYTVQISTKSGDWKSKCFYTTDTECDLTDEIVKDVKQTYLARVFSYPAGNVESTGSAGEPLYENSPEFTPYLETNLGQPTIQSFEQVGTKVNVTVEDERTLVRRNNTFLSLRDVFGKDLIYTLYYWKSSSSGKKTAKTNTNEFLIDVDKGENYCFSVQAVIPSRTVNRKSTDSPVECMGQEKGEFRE

Row | Kd [nM] | koff [s⁻¹] | kon [M⁻¹ s⁻¹] | binding result | Binder
1 | 0.015 | 1.8e-05 | 1.3e+06 | – | D3h44 Fab H-N57Y (Fab, V domains shown, as the heavy chain of m2 (PDB 1JPS chain H) with the stated change; as the light chain of m2 (PDB 1JPS chain L); Tag as for m2; source: ExpiCHO, purified (Ni-NTA, SEC)) VH: EVQLVESGGGLVQPGGSLRLSCAASGFNIKEYYMHWVRQAPGKGLEWVGLIDPEQGYTIYDPKFQDRATISADNSKNTAYLQMNSLRAEDTAVYYCARDTAAYFDYWGQGTLVTVSS VL: DIQMTQSPSSLSASVGDRVTITCRASRDIKSYLNWYQQKPGKAPKVLIYYATSLAEGVPSRFSGSGSGTDYTLTISSLQPEDFATYYCLQHGESPWTFGQGTKVEIK
2 | 0.31 | 0.00062 | 2e+06 | – | D3h44 Fab L-N34D (Fab, V domains shown, as the heavy chain of m2 (PDB 1JPS chain H); as the light chain of m2 (PDB 1JPS chain L) with the stated change; Tag as for m2; source: ExpiCHO, purified (Ni-NTA, SEC)) VH: EVQLVESGGGLVQPGGSLRLSCAASGFNIKEYYMHWVRQAPGKGLEWVGLIDPEQGNTIYDPKFQDRATISADNSKNTAYLQMNSLRAEDTAVYYCARDTAAYFDYWGQGTLVTVSS VL: DIQMTQSPSSLSASVGDRVTITCRASRDIKSYLDWYQQKPGKAPKVLIYYATSLAEGVPSRFSGSGSGTDYTLTISSLQPEDFATYYCLQHGESPWTFGQGTKVEIK
3 | 0.025 | 3e-05 | 1.2e+06 | – | D3h44 Fab L-N34D/L-H91S double-point mutant (Fab, V domains shown, as the heavy chain of m2 (PDB 1JPS chain H); as the light chain of m2 (PDB 1JPS chain L) with the stated changes; Tag as for m2; source: ExpiCHO, purified (Ni-NTA, SEC)) VH: EVQLVESGGGLVQPGGSLRLSCAASGFNIKEYYMHWVRQAPGKGLEWVGLIDPEQGNTIYDPKFQDRATISADNSKNTAYLQMNSLRAEDTAVYYCARDTAAYFDYWGQGTLVTVSS VL: DIQMTQSPSSLSASVGDRVTITCRASRDIKSYLDWYQQKPGKAPKVLIYYATSLAEGVPSRFSGSGSGTDYTLTISSLQPEDFATYYCLQSGESPWTFGQGTKVEIK
4 | 17 | 0.059 | 1.6e+07 | – | D3h44 Fab L-H91S (Fab, V domains shown, as the heavy chain of m2 (PDB 1JPS chain H); as the light chain of m2 (PDB 1JPS chain L) with the stated change; Tag as for m2; source: ExpiCHO, purified (Ni-NTA, SEC)) VH: EVQLVESGGGLVQPGGSLRLSCAASGFNIKEYYMHWVRQAPGKGLEWVGLIDPEQGNTIYDPKFQDRATISADNSKNTAYLQMNSLRAEDTAVYYCARDTAAYFDYWGQGTLVTVSS VL: DIQMTQSPSSLSASVGDRVTITCRASRDIKSYLNWYQQKPGKAPKVLIYYATSLAEGVPSRFSGSGSGTDYTLTISSLQPEDFATYYCLQSGESPWTFGQGTKVEIK
5 | 0.23 | 0.00038 | 1.7e+06 | – | D3h44 Fab L-H91Q (Fab, V domains shown, as the heavy chain of m2 (PDB 1JPS chain H); as the light chain of m2 (PDB 1JPS chain L) with the stated change; Tag as for m2; source: ExpiCHO, purified (Ni-NTA, SEC)) VH: EVQLVESGGGLVQPGGSLRLSCAASGFNIKEYYMHWVRQAPGKGLEWVGLIDPEQGNTIYDPKFQDRATISADNSKNTAYLQMNSLRAEDTAVYYCARDTAAYFDYWGQGTLVTVSS VL: DIQMTQSPSSLSASVGDRVTITCRASRDIKSYLNWYQQKPGKAPKVLIYYATSLAEGVPSRFSGSGSGTDYTLTISSLQPEDFATYYCLQQGESPWTFGQGTKVEIK
6 | – | – | – | no binding | D3h44 Fab H-Y33Q/H-A101R double-point mutant (Fab, V domains shown, as the heavy chain of m2 (PDB 1JPS chain H) with the stated changes; as the light chain of m2 (PDB 1JPS chain L); Tag as for m2; source: ExpiCHO, purified (Ni-NTA, SEC)) VH: EVQLVESGGGLVQPGGSLRLSCAASGFNIKEYQMHWVRQAPGKGLEWVGLIDPEQGNTIYDPKFQDRATISADNSKNTAYLQMNSLRAEDTAVYYCARDTRAYFDYWGQGTLVTVSS VL: DIQMTQSPSSLSASVGDRVTITCRASRDIKSYLNWYQQKPGKAPKVLIYYATSLAEGVPSRFSGSGSGTDYTLTISSLQPEDFATYYCLQHGESPWTFGQGTKVEIK

More lines, now with the values behind:

Row | Binder | Kd [nM] | koff [s⁻¹] | kon [M⁻¹ s⁻¹] | binding result
7 | D3h44 Fab L-H91E (Fab, V domains shown, as the heavy chain of m2 (PDB 1JPS chain H); as the light chain of m2 (PDB 1JPS chain L) with the stated change; Tag as for m2; source: ExpiCHO, purified (Ni-NTA, SEC)) VH: EVQLVESGGGLVQPGGSLRLSCAASGFNIKEYYMHWVRQAPGKGLEWVGLIDPEQGNTIYDPKFQDRATISADNSKNTAYLQMNSLRAEDTAVYYCARDTAAYFDYWGQGTLVTVSS VL: DIQMTQSPSSLSASVGDRVTITCRASRDIKSYLNWYQQKPGKAPKVLIYYATSLAEGVPSRFSGSGSGTDYTLTISSLQPEDFATYYCLQEGESPWTFGQGTKVEIK | 0.02 | 2.7e-05 | 1.4e+06 | –
8 | D3h44 Fab H-I59H (Fab, V domains shown, as the heavy chain of m2 (PDB 1JPS chain H) with the stated change; as the light chain of m2 (PDB 1JPS chain L); Tag as for m2; source: ExpiCHO, purified (Ni-NTA, SEC)) VH: EVQLVESGGGLVQPGGSLRLSCAASGFNIKEYYMHWVRQAPGKGLEWVGLIDPEQGNTHYDPKFQDRATISADNSKNTAYLQMNSLRAEDTAVYYCARDTAAYFDYWGQGTLVTVSS VL: DIQMTQSPSSLSASVGDRVTITCRASRDIKSYLNWYQQKPGKAPKVLIYYATSLAEGVPSRFSGSGSGTDYTLTISSLQPEDFATYYCLQHGESPWTFGQGTKVEIK | 15 | 0.038 | 3.6e+06 | –
9 | D3h44 Fab H-A101V (Fab, V domains shown, as the heavy chain of m2 (PDB 1JPS chain H) with the stated change; as the light chain of m2 (PDB 1JPS chain L); Tag as for m2; source: ExpiCHO, purified (Ni-NTA, SEC)) VH: EVQLVESGGGLVQPGGSLRLSCAASGFNIKEYYMHWVRQAPGKGLEWVGLIDPEQGNTIYDPKFQDRATISADNSKNTAYLQMNSLRAEDTAVYYCARDTVAYFDYWGQGTLVTVSS VL: DIQMTQSPSSLSASVGDRVTITCRASRDIKSYLNWYQQKPGKAPKVLIYYATSLAEGVPSRFSGSGSGTDYTLTISSLQPEDFATYYCLQHGESPWTFGQGTKVEIK | 0.14 | 0.00018 | 1.3e+06 | –
10 | D3h44 Fab H-K30Q (Fab, V domains shown, as the heavy chain of m2 (PDB 1JPS chain H) with the stated change; as the light chain of m2 (PDB 1JPS chain L); Tag as for m2; source: ExpiCHO, purified (Ni-NTA, SEC)) VH: EVQLVESGGGLVQPGGSLRLSCAASGFNIQEYYMHWVRQAPGKGLEWVGLIDPEQGNTIYDPKFQDRATISADNSKNTAYLQMNSLRAEDTAVYYCARDTAAYFDYWGQGTLVTVSS VL: DIQMTQSPSSLSASVGDRVTITCRASRDIKSYLNWYQQKPGKAPKVLIYYATSLAEGVPSRFSGSGSGTDYTLTISSLQPEDFATYYCLQHGESPWTFGQGTKVEIK | 0.097 | 0.00014 | 1.5e+06 | –
11 | D3h44 Fab H-K30Q/H-E54H double-point mutant (Fab, V domains shown, as the heavy chain of m2 (PDB 1JPS chain H) with the stated changes; as the light chain of m2 (PDB 1JPS chain L); Tag as for m2; source: ExpiCHO, purified (Ni-NTA, SEC)) VH: EVQLVESGGGLVQPGGSLRLSCAASGFNIQEYYMHWVRQAPGKGLEWVGLIDPHQGNTIYDPKFQDRATISADNSKNTAYLQMNSLRAEDTAVYYCARDTAAYFDYWGQGTLVTVSS VL: DIQMTQSPSSLSASVGDRVTITCRASRDIKSYLNWYQQKPGKAPKVLIYYATSLAEGVPSRFSGSGSGTDYTLTISSLQPEDFATYYCLQHGESPWTFGQGTKVEIK | 0.029 | 2.6e-05 | 940000 | –
12 | D3h44 Fab H-A101S/H-A102H double-point mutant (Fab, V domains shown, as the heavy chain of m2 (PDB 1JPS chain H) with the stated changes; as the light chain of m2 (PDB 1JPS chain L); Tag as for m2; source: ExpiCHO, purified (Ni-NTA, SEC)) VH: EVQLVESGGGLVQPGGSLRLSCAASGFNIKEYYMHWVRQAPGKGLEWVGLIDPEQGNTIYDPKFQDRATISADNSKNTAYLQMNSLRAEDTAVYYCARDTSHYFDYWGQGTLVTVSS VL: DIQMTQSPSSLSASVGDRVTITCRASRDIKSYLNWYQQKPGKAPKVLIYYATSLAEGVPSRFSGSGSGTDYTLTISSLQPEDFATYYCLQHGESPWTFGQGTKVEIK | 0.15 | 0.00018 | 1.2e+06 | –
13 | D3h44 Fab L-H91N (Fab, V domains shown, as the heavy chain of m2 (PDB 1JPS chain H); as the light chain of m2 (PDB 1JPS chain L) with the stated change; Tag as for m2; source: ExpiCHO, purified (Ni-NTA, SEC)) VH: EVQLVESGGGLVQPGGSLRLSCAASGFNIKEYYMHWVRQAPGKGLEWVGLIDPEQGNTIYDPKFQDRATISADNSKNTAYLQMNSLRAEDTAVYYCARDTAAYFDYWGQGTLVTVSS VL: DIQMTQSPSSLSASVGDRVTITCRASRDIKSYLNWYQQKPGKAPKVLIYYATSLAEGVPSRFSGSGSGTDYTLTISSLQPEDFATYYCLQNGESPWTFGQGTKVEIK | 0.2 | 0.00026 | 1.3e+06 | –
